Reference: patent US20230105029A1 (CHIA TAI TIANQING PHARMACEUTICAL GROUP, published 2023)
Like-named read-outs stand apart in the source and are kept apart here.

What was measured:
[1] = biological target: T1, recombinant human IL4Rα-his protein (in house made) (human, UniProt P24394 26-232, limits assumed); assay: SPR (Biacore), antibody captured, IL4Rα-his flowed
T1 construct: also called Human IL4Ra-his
Experimental: Briefly, goat anti-mouse IgG (GE healthcare, Cat #BR100838, Mouse Antibody Capture Kit) was covalently linked to a CMS chip (carboxy methyl dextran coated chip) via primary amines, using a standard amine coupling kit provided by Biacore (GE healthcare, Pittsburgh, Pa., USA). Un-reacted moieties on the biosensor surface were blocked with ethanolamine. Then, purified anti-IL4Rα antibodies of the disclosure at the concentration of 66.67 nM and an anti-IL4Rα benchmark (Dupilumab®, also referred to as BM) at 10 μg/ml, were flowed onto the chip at a flow rate of 10 μL/min. Then, serially diluted recombinant human IL4Rα-his (in house made, amino acid sequence set forth in SEQ ID NO: 57), cynomolgus monkey IL4Rα-his protein (Sino biological inc., Cat #90897—C08H), or marmoset monkey IL4Rα-his protein (Custom made by Sino biological inc., also referred to as cal-IL4Rα-his, amino acid sequence set forth in SEQ ID NO: 58) in HBS EP buffer (provided by Biacore) was flowed onto the chip at a flow rate of 30 μL/min. The antigen-antibody association kinetics was followed for 2 minutes and the dissociation kinetics was followed for 10 minutes. The association and dissociation curves were fit to a 1:1 Langmuir binding model using BIA evaluation software.

[2] = biological target: T2, cynomolgus monkey IL4Rα-his protein (cynomolgus monkey, UniProt A0A2K5V580 33-239); assay: indirect ELISA, coated cyno IL4Rα-his
T2 construct: Bought protein; also called Cynomolgus IL4Rα; Cyno-IL4Rα-his; not shown: his tag
Experimental: (§1) The anti-IL4Rα antibodies' cross-reaction with cynomolgus IL4Rα proteins or cal-IL4Rα-his proteins were measured. Briefly, 96-well micro plates were coated with 2 μg/ml cynomolgus IL4Rα-his protein (Sino biological inc., Cat #90897—C08H) or 0.2 μg/ml cal-IL4Rα-his protein (Custom made by Sino biological inc., Cat #BAX2) in carbonate/bicarbonate buffer (pH 9.6), 100 μl/well, for 2 hours at 37° C. ELISA plates were washed once with wash buffer (PBS+0.05% w/v Tween-20, PBST) and then blocked with 200 μl/well blocking buffer (5% w/v non-fatty milk in PBST) for 2 hours at 37° C. Plates were washed again and incubated with 100 μl/well serially diluted anti-IL4Rα antibodies of the disclosure or controls (0.004-66.7 nM, 5-fold serial dilution in 2.5% w/v non-fatty milk in PBST, starting at 66.7 nM) for 40 minutes at 37° C. […] After a final wash, plates were incubated with 100 μl/well TMB (Innoreagents). The reaction was stopped 3-10 minutes later at 25° C. with 50 μl/well 1M H₂SO₄, and the absorbance was read at 450 nm. Data was analyzed using Graphpad Prism software and EC₅₀ values were reported.

[3] = biological target: T3, human IL4Rα expressed on HEK293T-IL4Rα-STAT6-STAT6LUC-LB2 cells (human, UniProt P24394 26-825); assay: cell-based or functional assay
[4] = biological target: T1, recombinant human IL4Rα-his protein (in …); assay: capture ELISA, biotin-IL4Rα-his
Experimental: (§2) Plates were washed once with wash buffer (PBS+0.05% w/v Tween-20, PBST) and then blocked with 200 μl/well blocking buffer (5% w/v non-fatty milk in PBST) for 2 hours at 37° C. Plates were washed again and incubated with 100 μl/well serially diluted anti-IL4Rα antibodies of the disclosure, the benchmark or negative control hIgG (human immunoglobulin (pH4) for intravenous injection, Hualan Biological Engineering Inc.) (5-fold dilution in 2.5% w/v non-fatty milk in PBST, starting at 66.7 nM) for 40 minutes at 37° C., and then washed 4 times again. Plates containing captured anti-IL4Rα antibodies were incubated with biotin-labeled human IL4Rα-his protein (in house made with SEQ ID NO: 57, 0.14 nM in 2.5% w/v non-fatty milk in PBST, 100 μl/well) for 40 minutes at 37° C., washed 4 times, and incubated with streptavidin conjugated HRP (1:10000 dilution in PBST, Jackson Immuno Research, Cat #016-030-084, 100 μl/well) for 40 minutes at 37° C. After a final wash, plates were incubated with 100 μl/well ELISA substrate TMB (Innoreagents, Cat #TMB-S-002). The reaction was stopped in 10 minutes at 25° C. with 50 μl/well 1M H₂SO₄, and the absorbance was read at 450 nm. Data was analyzed using Graphpad Prism software and EC₅₀ values were reported.

[5] = biological target: T1, recombinant human IL4Rα-his protein (in …); assay: capture ELISA: antibody captured on anti-IgG Fc plate, biotin human IL4Rα-his detected
Experimental: as §2

[6] = biological target: T2, cynomolgus monkey IL4Rα-his protein; assay: indirect ELISA on coated cynomolgus IL4Rα-his
Experimental: as §1

[7] = biological target: T1, recombinant human IL4Rα-his protein (in …); assay: capture ELISA, biotin-IL4Rα-his; remark: listed apart in the source
Experimental: as §2
(§3) For the capture ELISA, 96-well micro plates were coated with 2 μg/ml goat anti-human IgG (AffiniPure Goat Anti-Human IgG, Fcγ fragment specific, Jackson Immunoresearch, Cat #109-005-098) instead of goat anti-mouse IgG Fey fragment, 100 μl/well.

[8] = biological target: T1, recombinant human IL4Rα-his protein (in …); assay: capture ELISA: antibody captured on anti-IgG Fc plate, biotin human IL4Rα-his detected; remark: listed apart in the source
Experimental: as §2, §3

[9] = biological target: T1, recombinant human IL4Rα-his protein (in …); assay: competitive ELISA, blocks biotin-IL4 binding to coated IL4Rα-his
[10] = biological target: T3, human IL4Rα expressed on …; assay: cell-based or functional assay; remark: listed apart in the source
[11] = biological target: T1, recombinant human IL4Rα-his protein (in …); assay: capture ELISA, biotin-IL4Rα-his; remark: listed apart in the source
[12] = biological target: T2, cynomolgus monkey IL4Rα-his protein; assay: indirect ELISA, coated cyno IL4Rα-his; remark: listed apart in the source

Binder | Kd [1] [nM] | koff [1] [s⁻¹] | kon [1] [M⁻¹ s⁻¹] | binding result [2] | Inhibition on IL4 induced STAT6 phosphorylation (IC50, nM) [3] [nM] | Inhibition on IL13 induced STAT6 phosphorylation (IC50, nM) [3] [nM] | EC50 [4] [nM] | EC50 [5] [nM] | EC50 [6] [nM] | EC50 [7] [nM] | EC50 [8] [nM] | IC50 [9] [nM] | EC50 [2] [nM] | Inhibition on IL4 induced STAT6 phosphorylation (IC50, nM) [10] [nM] | Inhibition on IL13 induced STAT6 phosphorylation (IC50, nM) [10] [nM] | EC50 [11] [nM] | EC50 [12] [nM]
mouse antibody B1D2F7D3B5 (antibody, V domains shown, Mouse hybridoma mAb) VH: EVKLVESGGGLVKPGGSLKLSCAASGFTFSSYAMSWVRQTPEKRLEWVASISSGDSTYYLDSVKGRFTISRDNAMNILYLQMSSLRSEDTAVYYCERSGGSAPYWGQGTLVSVSA VL: QIVLTQSPAIMSASPGEMVTISCSASSSVSYMYWYQQKPGSSPKPWIYRTSNLASGVPARFSGSGSGTSYSLTISSMEAEDAATYYCQQYHSFPLTFGAGTKLELK | 0.623 | 0.000266 | 427000 | no binding (tested: 66.7 nM (highest concentration tested)) | 0.17 | 0.48 | 0.06 | 0.0644 |  |  |  |  |  |  |  |  | 
mouse antibody B9D1D11F8D8 (antibody, V domains shown, Mouse hybridoma mAb) VH: EVKLVESGGGLVKPGGSLKLSCAASGFTFSSYAMSWVRQTPEKRLEWVASISSGDSTYYLDSVKGRFTISRDNARNILYLQVSSLRSEDTAMYYCERSGGSAPYWGQGTLVTVSA VL: QIVLTQSPAIMSASPGDMVTISCSASSSVNYMYWYQQKPGSSPKPWIYRTSNLASGVPARFSGSGSGTSYSLTISSMEAEDAATYYCQQYHSFPLTFGAGTKLELK | 0.655 | 0.000274 | 418000 | no binding (tested: 66.7 nM (highest concentration tested)) | 0.23 | 0.36 | 0.07 | 0.0703 |  |  |  |  |  |  |  |  | 
mouse antibody C2C1A1A1 (antibody, V domains shown, Mouse hybridoma mAb; also called Mouse C2C1A1A1) VH: EVQLVESGGGLVQPGGSLKLSCAASGFTFSTYGMSWVRQTPDKRLELVATINSNGGSTSYPDSVKGRFTISRDNAKNTLYLQMSSLKSEDTAMFYCARFFRFRNAMDYWGQGTSVTVSS VL: DIQMTQSPASLSASVGETVTITCRTSENIYSYLAWYQQKQGKSPQFLVYNAKTLAEGVPSRFSGSGSGTQFSLNINSLQSEDFGSYYCQHYYGPPTWTFGGGTKLEIK | 0.0401 | 1.16e-05 | 290000 |  | 0.16 | 0.23 | 0.08 | 0.0759 | 0.329 | 0.03 | 0.0262 | 1.89 | 0.33 | 0.19 | 0.27 |  | 
mouse antibody C2B2F7B7 (antibody, V domains shown, Mouse hybridoma mAb) VH: EVQLVESGGGLVQPGGSLKLSCAASGFTFSTYGMSWVRQTPDKRLELVATINSNGGSTNYPDSVKGRFTISRDNAKNTLYLQMSSLKSEDTAMYYCARFFRIRNAMDYWGQGTSVTVSS VL: DIQMTQSPASLSASVGETVTITCRASENIYSYLAWYQQKQGKSPQFLVYNAKTLAEGVPSRFSGSGSGTQFSLKINSLQPEDFGSYYCQHYYGTPTWTFGGGTKLEIK | 0.554 | 0.000139 | 251000 |  | 0.17 | 0.31 | 0.13 | 0.129 | 108 |  |  |  | 108 |  |  |  | 
mouse antibody B8G11F2B7G5E8 (antibody, V domains shown, Mouse hybridoma mAb; also called Mouse B8G11F2B7G5E8; mAb B8G11F2B7G5E8) VH: EVQLQQSGADLVRPGASVKLSCTASGFNIKDTYMHWVKQRPEQGLEWVGRIDPTNGYTIYASKFQGKATITADTSSNTAYMQLSSLTSGDTAVYHCVSRRPWFAYWGQGTLVTVSA VL: DILMTQTPLSLPVSLGAQASISCRSSQSIVHSNGNTYLEWYLQKPGQSPKLLIYKVTNRFSGVPDRFSGSGSGTDFTLKISRVEAEDLGIYYCFQGSHVPYTFGGGTKLEIK | 1.49 | 0.000293 | 197000 |  | 0.23 | 0.47 | 0.04 | 0.0393 | 0.291 | 0.14 | 0.143 | 1.64 | 0.29 | 0.26 | 0.6 | 0.21 | 0.5
chimeric antibody B8G11F2B7G5E8 (antibody, human IgG4 S228P, kappa, V domains shown, Mouse variable domains on human IgG4/kappa; also called Chimeric B8G11F2B7G5E8; chB8G11F2B7G5E8) VH: EVQLQQSGADLVRPGASVKLSCTASGFNIKDTYMHWVKQRPEQGLEWVGRIDPTNGYTIYASKFQGKATITADTSSNTAYMQLSSLTSGDTAVYHCVSRRPWFAYWGQGTLVTVSA VL: DILMTQTPLSLPVSLGAQASISCRSSQSIVHSNGNTYLEWYLQKPGQSPKLLIYKVTNRFSGVPDRFSGSGSGTDFTLKISRVEAEDLGIYYCFQGSHVPYTFGGGTKLEIKR |  |  |  |  |  |  |  |  |  | 0.27 | 0.275 | 1.82 |  | 0.26 | 0.76 | 0.32 | 1.06
chimeric antibody C2C1A1A1 (antibody, human IgG4 S228P, kappa, V domains shown, Mouse variable domains on human IgG4/kappa; also called Chimeric C2C1A1A1; chC2C1A1A1) VH: EVQLVESGGGLVQPGGSLKLSCAASGFTFSTYGMSWVRQTPDKRLELVATINSNGGSTSYPDSVKGRFTISRDNAKNTLYLQMSSLKSEDTAMFYCARFFRFRNAMDYWGQGTSVTVSS VL: DIQMTQSPASLSASVGETVTITCRTSENIYSYLAWYQQKQGKSPQFLVYNAKTLAEGVPSRFSGSGSGTQFSLNINSLQSEDFGSYYCQHYYGPPTWTFGGGTKLEIKR |  |  |  |  |  |  |  |  |  | 0.05 | 0.0549 | 3.12 |  | 0.27 | 0.56 | 0.05 | 0.6
